Laboratory results taken from IntAct's records for PubMed 26416881.

B1: MICOS complex subunit MIC19 (Saccharomyces cerevisiae), P43594 (parent)
chain: MGSNTSKVGAGAEKQQVYTPLTQIDFSQSLVSQLDSSKESDYVTKQNAEKFIEKKVSQRLSNLEVETLKKFEDTLNNSLLSDDDKDAVDGISSSSLNNQIESLNKKLTLFDQLELQKLEKYGGAKGKSDKKTDNGSISIKAKLTECLLANKGKPLNCYEEMEEFKKLVMG
partner: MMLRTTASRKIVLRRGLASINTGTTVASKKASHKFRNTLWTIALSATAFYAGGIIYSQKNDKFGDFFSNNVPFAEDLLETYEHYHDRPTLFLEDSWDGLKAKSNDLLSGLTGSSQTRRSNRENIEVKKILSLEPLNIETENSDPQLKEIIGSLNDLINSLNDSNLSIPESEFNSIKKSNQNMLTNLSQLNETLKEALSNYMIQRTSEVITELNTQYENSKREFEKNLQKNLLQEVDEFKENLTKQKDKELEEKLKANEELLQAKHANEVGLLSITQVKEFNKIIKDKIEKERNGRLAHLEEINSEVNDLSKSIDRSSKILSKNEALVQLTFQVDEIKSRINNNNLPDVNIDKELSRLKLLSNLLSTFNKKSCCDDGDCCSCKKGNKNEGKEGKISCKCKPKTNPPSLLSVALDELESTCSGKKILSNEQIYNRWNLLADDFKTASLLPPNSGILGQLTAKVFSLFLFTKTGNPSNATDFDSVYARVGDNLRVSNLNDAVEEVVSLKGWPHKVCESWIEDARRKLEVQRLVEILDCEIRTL

Variants of: B1
Conditions: with mic60_yeast MIC60, P36112

Row | Variant | effect of a mutation on the interaction
1 | MGSNTSKVGAGAEKQQVYTPLTQIDFSQSLVSQLDSSKESDYVTKQNAEKFIEKKVSQRLSNLEVETLKKFEDTLNNSLLSDDDKDAVDGISSSSLNNQIESLNKKLTLFDQLELQKLEKYGGAKGKSDKKTDNGSISIKAKLTESLLANKGKPLNCYEEMEEFKKLVMG | with no effect
2 | MGSNTSKVGAGAEKQQVYTPLTQIDFSQSLVSQLDSSKESDYVTKQNAEKFIEKKVSQRLSNLEVETLKKFEDTLNNSLLSDDDKDAVDGISSSSLNNQIESLNKKLTLFDQLELQKLEKYGGAKGKSDKKTDNGSISIKAKLTECLLANKGKPLNSYEEMEEFKKLVMG | decreasing interaction strength
